Laboratory results published in the DeepSol protein solubility set.

Assay: soluble on expression in E. coli; label from the status in PepcDB or PDB records

Soluble on expression in E. coli, not soluble:
MGSDKIHHHHHHMQFADFWYIVALSNQLQPNKVLPRTVLGEWLAIFRGEDGQPVALRDRCLHRNSRLSSGKICNGALQCPYHGWVYDGVGNVIAVPAEGNDFKPSPQRRAKCYATKEQDGYVYVRLADTPSVDFEPFSMPHYGQTGWETVRVINRFANNVTNCAENFIDIPHTAFVHPGVFRTSRQQKLEMTVERWNGSVLVEYRNENSNLGWYSRFLNLQSAEIKHSDRFYMPNITSVEYKMARNRHLFITSQSIPETDNSTLVYTDVTYNYGIWNKLARPFVRWTAQHIIRQDVEILGIQGEAIAKYGTQFYNTPADTIHIFVESIMAAISRGEDPRLLPNQSVKVTFWV
MGSDKIHHHHHHMQFLYNKQAGEEFIQLQGENFNHLKVRRVKENSELNLRNLQDNFLYNYTITNLTRNSCTLKFLNKKSQNIKQSELNLALAIIDIKILEKTLPFLNELGVKKLHLVFTNFSQRNFKIDLERFEKIIISSCEQCGRNTKMDLIIHQSTQEFVQKFPNAIMVDFQGEQQSHFDEKELYFIGPEGGFNNDERLLFNRKISLKSSNILKSQTAIIAIASKILL
MGSDKIHHHHHHMQHHKVAIIGAGAAGIGMAITLKDFGITDVIILEKGTVGHSFKHWPKSTRTITPSFTSNGFGMPDMNAISMDTSPAFTFNEEHISGETYAEYLQVVANHYELNIFENTVVTNISADDAYYTIATTTETYHADYIFVATGDYNFPKKPFKYGIHYSEIEDFDNFNKGQYVVIGGNESGFDAAYQLAKNGSDIALYTSTTGLNDPDADPSVRLSPYTRQRLGNVIKQGARIEMNVHYTVKDIDFNNGQYHISFDSGQSVHTPHEPILATGFDATKNPIVQQLFVTTNQDIKLTTHDESTRYPNIFMIGATVENDNAKLCYIYKFRARFAVLAHLLTQREGLPAKQEVIENYQKNQMYLDDYSCCEVSCTC
MGSDKIHHHHHHMQIDKQQVGNRIHQLRIAAGLSMAKLASAIGLAGKSTINDWEKGRTLANADRLAKVAAYFDVSTNYLLYGSLTEYVTAVFQNGGLNHSEFNVLLWEYVDLTTTNPNILSSDLFSSASQTEQGVSDPTKIAAALITPTINNAIRQIVPEIVQHYQQTTTYPEPQAVIQAGCYVFRHRIQIIRRTFTGKYNRIVRLLDNVDLYEKLQPDDDLKAYLNQTTGPKTQVQNGYSLDEKYQRQMNKVITEFHQALNRINDAYQAELMACGQGQAHSAAD
MGSDKIHHHHHHMQIDQIETFLDLLETQSFNRTADRLDVTQSTVSGRVKALEKALGERLFERSRSGTQPTTAALRFETHARVLRRAWADGQADVKPFGTAVMLRIGIQHDLIDNHVADWLAALRQALPECGFYVDGDYSTQMCRDLETGALDLGVVFTPRPSPDLYFESMGEVTYQMVSTAQTSLPQIDPTNYILPNYAPAFAQTHAALLPGLSLGSVSSGQAAAVRGLLIALGGTTYLPTEMVSALITEGIAHHVPGAPDITQPVFVAMHLRNRHRAGYRRMANVLRDRVGT
MGSDKIHHHHHHMQIDSSILGALRCFEAAGRLLSFTKAAESLNLTQSAVSQQIRHLEDRLGYVLFVRQPRSLKLTPQGEVLFETTTRALHDIQQTIQRLGMPNAPLQVNCLPSFALQWLMPRLTDFHREQPDVSVRLKAEFQALDRQSMDTEDIDVAVRYDPVRYSRLHADVLLDEYLIPVATPEYLAEHRELAEGTSLDGVVLLHDASPWVGAAEFVEWRTWLEAFHPTWMAHLEGPQFNLSSLAISAALNHQGVAMGRTALVYDEIRSGRLVNVFRQHVRAPARYMLLSRNPDDRRVTIFSAWLKAECARFDAMRMETLSRDR
MGSDKIHHHHHHMQISFISHEYPPVSGGGSTALHEYASGLATRGHAVQVVTVGTGAHDTVDTEDGVQVVRLAAGRKSLLAPSKAELIRSCAALRLKSMPHLRRHEPEVLVAFFAFPAGFLAAPLAAKLNIPLVVSLRGSDVPGFSAKRLGVFGPLLPYLFRRATRHAAAVVPNGRRLADMAAPYLHTGSRVQVIPNGVDTLRFAPQGAEHGSMGGPLRVLFVGQMIARKQCLVLAQALHEVAARGVPLQVSFAGSGPLEQDIRRIVSSLDPVVGVTFTGHVPRNAIADLYGAHDVLVHLSQAEGVSNVLMEALSSGLCLVAADTAVDAAIDGVPRQAPAEDGGIILLPVDCGPVVLGATLAGLACNRSLVEEQQRLARRTALKNSWQVRVGELEDLLTGSIAGCQAS
